Measurements as given in PMC6921966 (2019).

Target: M2e-VHH-23m (llama)
Experiment: ITC

Chain of M2e-VHH-23m (llama) (VHH, as listed by the source): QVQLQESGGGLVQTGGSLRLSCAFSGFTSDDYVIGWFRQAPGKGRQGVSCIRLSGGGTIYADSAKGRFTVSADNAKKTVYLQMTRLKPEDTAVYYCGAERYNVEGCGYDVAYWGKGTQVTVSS

## SLLTEVETPIRNEWGCRCNDSSD [human H3N2 M2e peptide]
  Ka: 1.37e+06 M⁻¹
